In general, stoichiometry N refers to a count of units in the complex or per binding partner.

Two proteins from paper PMC13125535, “Reprogramming of bacterial virulence by lysine acetylation” (Nature Communications, 2026) can be followed below.

This data set deals with the molecule itself. Put plainly: SEC; analytical SEC on a calibrated Superdex 200 10/300 GL column; 25 mM Tris-HCl pH 7.5, 150 mM NaCl, 2 mM β-mercaptoethanol; 1.0–2.0 mg/mL protein, 100 µL applied; tetramer to monomers. A general note: Size exclusion chromatography separates by hydrodynamic size, large species first.

B1: SnCE1 C256A AcK209 (domain or fragment)
chain: SLTSKAICRYSLSSVESIQPKTQVKAIEPKGEKDRFLIDERNWLNNQHLGLYSLFLQEKYGPEVFFPFGGWTYVFPGLTDRFFKEDSYHILDVRAKRIKSFLDYKSITYPLFIGGNHWGLLFIDREKRTVEYYDSKINYGNYEEGLQGIKDVAAKFTKYDPGEKPYTYLEKIKKKLQPDGYQAGPWALYFLEHRLENPEVDFNQLDLNEAQNMIAKYRFAVRDKLLELQKNGNTLYC
modifications: acetyl-lysine at 209
notes: SnCE1, Simkania negevensis, UniProt F8L4W9
In the case of B1, the “stoichiometry N” value worked out at 4.

B2: SnCE1_(104-310) C256A (non-acetylated) (domain or fragment)
chain: GEKDRFLIDERNWLNNQHLGLYSLFLQEKYGPEVFFPFGGWTYVFPGLTDRFFKEDSYHILDVRAKRIKSFLDYKSITYPLFIGGNHWGLLFIDREKRTVEYYDSKINYGNYEEGLQGIKDVAAKFTKYDPGEKPYTYLEKIKKKLQPDGYQAGPWALYFLEHRLENPEVDFNQLDLNEAQNMIAKYRFAVRDKLLELQKNGNTLYC
notes: SnCE1, Simkania negevensis, UniProt F8L4W9, residues 104-310; Not acetylated; no proteolytic processing seen for this truncated protein; not shown: GST, N-terminal, cleaved
For the protein B2, the “stoichiometry N” value was 4.
